In patent US10030233B2, “Modified P450 reductase with N-terminal deletions and endoplasmic reticulum retention tag” (DE MONTFORT UNIVERSITY, priority 2013, dated 2018):

T1: CYP1A2 (Homo sapiens, UniProt P05177)
T1 construct: A 1563 bp BamHI-XhoI fragment containing the human CYP1A2 gene; made in house; host or cells: Saccharomyces cerevisiae W303B, microsomes
T1 sequence (P05177 1-516): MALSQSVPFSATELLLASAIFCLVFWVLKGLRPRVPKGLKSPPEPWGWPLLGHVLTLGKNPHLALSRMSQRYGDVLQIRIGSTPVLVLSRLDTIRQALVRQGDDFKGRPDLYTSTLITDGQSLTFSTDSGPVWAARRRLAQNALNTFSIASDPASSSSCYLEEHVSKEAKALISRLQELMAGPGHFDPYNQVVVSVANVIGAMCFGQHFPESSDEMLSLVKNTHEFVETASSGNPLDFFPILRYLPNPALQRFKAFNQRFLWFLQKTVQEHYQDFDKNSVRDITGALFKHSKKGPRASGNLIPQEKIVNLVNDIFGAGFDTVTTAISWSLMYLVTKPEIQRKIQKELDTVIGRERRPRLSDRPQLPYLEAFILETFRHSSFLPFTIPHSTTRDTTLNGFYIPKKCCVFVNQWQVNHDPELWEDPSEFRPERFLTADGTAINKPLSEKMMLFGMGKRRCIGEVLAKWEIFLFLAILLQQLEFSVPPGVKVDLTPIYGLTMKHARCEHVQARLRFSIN


Columns and labels:
CYP2D6 [1] = biological target: T2, CYP2D6 (Homo sapiens, UniProt P10635, V374M); assay type: biochemical
T2 construct: A 1506 bp BamHI-XbaI fragment containing the human CYP2D6 gene; made in house; host or cells: Saccharomyces cerevisiae W303B, microsomes

CYP2D6 [2] = test: Amount of CYP2D6 in yeast microsomes by CO-difference spectra, co-expressed with P450 reductase variants; assay type: cell-based, human; settings: relative to hRD = 1; genes synthesized using yeast biased codons; yeast W303B, pSYE264
Description: (§1) The hRD variant genes, (ΔN1hRD-M, ΔN1hRD-HDEL, ΔN2hRD-HDEL), were integrated into Saccharomyces cerevisiae strain W303B (MAT a leu2 his3 trp1 can1-100 ade2 trp1 ura3) using standard yeast transformation procedures as detailed below. The integrating plasmids, bearing the ΔN1hRD-M, ΔN1hRD-HDEL, ΔN2hRD-HDEL genes, were first linearised with the restriction enzyme BstEII before introducing linearised DNA into yeast cells via homologous recombination. The resultant strains were named: • a) W303B-ΔN1hRD-M, • b) W303B-ΔN1hRD-HDEL, • c) W303B-ΔN2hRD-HDEL.
(§2) They were used for the transformation of the yeast episomal plasmids that bear the CYP2D6 and CYP1A2 genes: • 1. pSYE264 (bearing the human CYP2D6 gene), • 2. pSYE265 (bearing the human CYP1A2 gene).
(§3) A single colony from the strains W303B-ΔN1hRD-M, W303B-ΔN1hRD-HDEL, W303B-ΔN2hRD-HDEL were picked up from a minimal medium (SD) plate (supplemented with appropriate nutrients depending on the auxotrophic markers in the yeast strain) and inoculated into 10 ml of YPD medium (2% Bacto Peptone, 1% yeast extract, 2% glucose). The cells were grown overnight at 30° C. with 220 rpm shaking. 1.5 ml of overnight cultures were centrifuged at 13,000 rpm for a few seconds to collect the cell pellets. 0.5-2 μg of transforming DNA (i.e. the CYP bearing expression plasmids, pSYE264 and pSYE265) and 100 μg of single-stranded salmon sperm DNA were added to pellets and vortexed briefly. 500 μl of PEG solution (40% PEG 3350, 0.1M lithium acetate pH 7.5, 10 mM Tris-HCl pH 7.5, 1 mM EDTA pH7.5) and 5-10% DMSO were added to transformation mixes. All mixes were incubated in a Thermo-mixer for 15 min at 25° C. with shaking at 400 rpm, and then were heat shocked for 15 min at 42° C. After 10 min, 5-10% ethanol was added. The cells were pelleted at 8000 rpm for 1 min and were washed twice in 1×TE buffer and re-suspended in 250 μl-500 μl 1×TE pH7.5. The cells were plated out on SD agar medium and incubated at 30° C. for 2-3 days.
(§4) Recombinant yeast cells were grown in culture using the following protocol: • 1. […] On day two, once OD600 (i.e. OD measured at 600 nm) of the cultures reached 5 to 6 OD-s, the cultures were inoculated into 400 ml YPD medium (1% Bacto Peptone, 1% yeast extract, 2% glucose) with appropriate nutrients in 2-liter flask. […] On day three, after 16 hours, optical density was again measured at 600 nm after diluting the original culture 1:10. […] At the final step, supernatant was poured away and the dry pellet was frozen at −80° C. and the pellet weight was recorded. […]
(§5) The cell pellet that had been obtained from the earlier cell culture was weighed and the weight of cell pellet was recorded. […]

CYP1A2 [3] = test: Amount of CYP1A2 in yeast microsomes by CO-difference spectra, co-expressed with P450 reductase variants; assay type: cell-based, human; settings: relative to hRD = 1; yeast W303B, pSYE265
Description: as §1, §2, §3, §4, §5

CYP1A2 [4] = biological target: T1, CYP1A2; assay type: biochemical

T2 sequence (P10635 whole entry V374M, the tested form may be a part): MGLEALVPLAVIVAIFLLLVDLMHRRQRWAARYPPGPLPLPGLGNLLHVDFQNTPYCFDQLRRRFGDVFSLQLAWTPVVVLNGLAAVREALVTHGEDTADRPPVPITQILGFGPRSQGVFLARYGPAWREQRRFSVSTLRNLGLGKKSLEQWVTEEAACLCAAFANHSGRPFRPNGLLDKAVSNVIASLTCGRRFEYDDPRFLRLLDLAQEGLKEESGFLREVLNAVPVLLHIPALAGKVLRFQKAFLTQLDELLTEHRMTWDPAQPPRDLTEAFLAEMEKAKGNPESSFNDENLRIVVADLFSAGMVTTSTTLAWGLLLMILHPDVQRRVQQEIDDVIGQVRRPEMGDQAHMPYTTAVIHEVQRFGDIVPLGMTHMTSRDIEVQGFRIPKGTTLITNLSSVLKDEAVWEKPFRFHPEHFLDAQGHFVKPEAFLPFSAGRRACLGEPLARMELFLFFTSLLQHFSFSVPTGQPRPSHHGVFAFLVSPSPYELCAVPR

Molecule	pmoles of CYP2D6/mg of total protein (Relative Amounts) (CYP2D6 [1])	Relative Amounts of CYP2D6 Obtained (CYP2D6 [2])	Relative Amounts of CYP1A2 Obtained (CYP1A2 [3])	pmoles of CYP1A2/mg of total protein (Relative Amounts) (CYP1A2 [4])
ΔN1hRD-M: human P450 reductase lacking N-terminal 24 amino acids, with C-terminal 12-amino acid c-myc tag; described in WO 2007/129050; gene SEQ ID NO: 5 (protein, delN1hRD-M) MTDMILFSLIVGLLTYWFLFRKKKEEVPEFTKIQTLTSSVRESSFVEKMKKTGRNIIVFYGSQTGTAEEFANRLSKDAHRYGMRGMSADPEEYDLADLSSLPEIDNALVVFCMATYGEGDPTDNAQDFYDWLQETDVDLSGVKFAVFGLGNKTYEHFNAMGKYVDKRLEQLGAQRIFELGLGDDDGNLEEDFITWREQFWPAVCEHFGVEATGEESSIRQYELVVHTDIDAAKVYMGEMGRLKSYENQKPPFDAKNPFLAAVTTNRKLNQGTERHLMHLELDISDSKIRYESGDHVAVYPANDSALVNQLGKILGADLDVVMSLNNLDEESNKKHPFPCPTSYRTALTYYLDITNPPRTNVLYELAQYASEPSEQELLRKMASSSGEGKELYLSWVVEARRHILAILQDCPSLRPPIDHLCELLPRLQARYYSIASSSKVHPNSVHICAVVVEYETKAGRINKGVATNWLRAKEPAGENGGRALVPMFVRKSQFRLPFKATTPVIMVGPGTGVAPFIGFIQERAWLRQQGKEVGETLLYYGCRRSDEDYLYREELAQFHRDGALTQLNVAFSREQSHKVYVQHLLKQDREHLWKLIEGGAHIYVCGDARNMARDVQNTFYDIVAELGAMEHAQAVDYIKKLMTKGRYSLDVWSSSEQKLISEEDLNGSRL	4 ± 10%	3 ± 10%	3.2 ± 10%	4 ± 10%
ΔN1hRD-HDEL: human P450 reductase lacking N-terminal 24 amino acids, with C-terminal yeast ER retention signal HDEL (protein, delN1hRD-HDEL, human P450 reductase lacking N-terminal 24 amino acids, with C-terminal yeast ER retention signal HDEL) MTDMILFSLIVGLLTYWFLFRKKKEEVPEFTKIQTLTSSVRESSFVEKMKKTGRNIIVFYGSQTGTAEEFANRLSKDAHRYGMRGMSADPEEYDLADLSSLPEIDNALVVFCMATYGEGDPTDNAQDFYDWLQETDVDLSGVKFAVFGLGNKTYEHFNAMGKYVDKRLEQLGAQRIFELGLGDDDGNLEEDFITWREQFWPAVCEHFGVEATGEESSIRQYELVVHTDIDAAKVYMGEMGRLKSYENQKPPFDAKNPFLAAVTTNRKLNQGTERHLMHLELDISDSKIRYESGDHVAVYPANDSALVNQLGKILGADLDVVMSLNNLDEESNKKHPFPCPTSYRTALTYYLDITNPPRTNVLYELAQYASEPSEQELLRKMASSSGEGKELYLSWVVEARRHILAILQDCPSLRPPIDHLCELLPRLQARYYSIASSSKVHPNSVHICAVVVEYETKAGRINKGVATNWLRAKEPAGENGGRALVPMFVRKSQFRLPFKATTPVIMVGPGTGVAPFIGFIQERAWLRQQGKEVGETLLYYGCRRSDEDYLYREELAQFHRDGALTQLNVAFSREQSHKVYVQHLLKQDREHLWKLIEGGAHIYVCGDARNMARDVQNTFYDIVAELGAMEHAQAVDYIKKLMTKGRYSLDVWSHDEL	6 ± 10%	3.8 ± 10%	4.0 ± 10%	6 ± 10%
ΔN2hRD-HDEL: human P450 reductase lacking the 54-amino acid membrane anchoring region, with C-terminal yeast ER retention signal HDEL (protein, delN2hRD-HDEL, human P450 reductase lacking the 54-amino acid membrane anchoring region, with C-terminal yeast ER retention signal HDEL) MTKIQTLTSSVRESSFVEKMKKTGRNIIVFYGSQTGTAEEFANRLSKDAHRYGMRGMSADPEEYDLADLSSLPEIDNALVVFCMATYGEGDPTDNAQDFYDWLQETDVDLSGVKFAVFGLGNKTYEHFNAMGKYVDKRLEQLGAQRIFELGLGDDDGNLEEDFITWREQFWPAVCEHFGVEATGEESSIRQYELVVHTDIDAAKVYMGEMGRLKSYENQKPPFDAKNPFLAAVTTNRKLNQGTERHLMHLELDISDSKIRYESGDHVAVYPANDSALVNQLGKILGADLDVVMSLNNLDEESNKKHPFPCPTSYRTALTYYLDITNPPRTNVLYELAQYASEPSEQELLRKMASSSGEGKELYLSWVVEARRHILAILQDCPSLRPPIDHLCELLPRLQARYYSIASSSKVHPNSVHICAVVVEYETKAGRINKGVATNWLRAKEPAGENGGRALVPMFVRKSQFRLPFKATTPVIMVGPGTGVAPFIGFIQERAWLRQQGKEVGETLLYYGCRRSDEDYLYREELAQFHRDGALTQLNVAFSREQSHKVYVQHLLKQDREHLWKLIEGGAHIYVCGDARNMARDVQNTFYDIVAELGAMEHAQAVDYIKKLMTKGRYSLDVWSHDEL	6 ± 10%	4.0 ± 10%	4.5 ± 10%	6 ± 10%
hRD: wild-type human P450 reductase, full length, control (protein, listed as Homo sapiens) MGDSHVDTSSTVSEAVAEEVSLFSMTDMILFSLIVGLLTYWFLFRKKKEEVPEFTKIQTLTSSVRESSFVEKMKKTGRNIIVFYGSQTGTAEEFANRLSKDAHRYGMRGMSADPEEYDLADLSSLPEIDNALVVFCMATYGEGDPTDNAQDFYDWLQETDVDLSGVKFAVFGLGNKTYEHFNAMGKYVDKRLEQLGAQRIFELGLGDDDGNLEEDFITWREQFWPAVCEHFGVEATGEESSIRQYELVVHTDIDAAKVYMGEMGRLKSYENQKPPFDAKNPFLAAVTTNRKLNQGTERHLMHLELDISDSKIRYESGDHVAVYPANDSALVNQLGKILGADLDVVMSLNNLDEESNKKHPFPCPTSYRTALTYYLDITNPPRTNVLYELAQYASEPSEQELLRKMASSSGEGKELYLSWVVEARRHILAILQDCPSLRPPIDHLCELLPRLQARYYSIASSSKVHPNSVHICAVVVEYETKAGRINKGVATNWLRAKEPAGENGGRALVPMFVRKSQFRLPFKATTPVIMVGPGTGVAPFIGFIQERAWLRQQGKEVGETLLYYGCRRSDEDYLYREELAQFHRDGALTQLNVAFSREQSHKVYVQHLLKQDREHLWKLIEGGAHIYVCGDARNMARDVQNTFYDIVAELGAMEHAQAVDYIKKLMTKGRYSLDVWS	1	1	1	1
